Measurements as given in patent publication US20240368275A1 (ELPIS BIOPHARMACEUTICALS, published 2024).
Positions count from the first letter of the chain named. Names may count otherwise.

Legend:
[1] = biological target: T1, human Nectin4-HIS tagged recombinant protein (human, UniProt Q96NY8 32-349); experiment: ELISA, coated human Nectin4-HIS, IgG titrated, anti-hFc HRP
T1 construct: also called hNectin4-HIS; Nectin4 HIS tagged protein; not shown: HIS tag
T1 sequence (looked up): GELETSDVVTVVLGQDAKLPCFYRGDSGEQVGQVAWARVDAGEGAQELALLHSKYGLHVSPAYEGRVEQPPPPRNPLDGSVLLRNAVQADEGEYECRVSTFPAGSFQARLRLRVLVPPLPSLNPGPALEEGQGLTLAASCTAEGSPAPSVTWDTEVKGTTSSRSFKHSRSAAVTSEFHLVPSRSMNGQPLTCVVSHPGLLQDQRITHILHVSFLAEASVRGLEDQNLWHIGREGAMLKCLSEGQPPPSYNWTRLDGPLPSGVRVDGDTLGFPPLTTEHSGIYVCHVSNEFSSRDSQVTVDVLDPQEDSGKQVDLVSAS
Description: An ELISA assay was developed to determine the EC₅₀ of exemplary anti-Nectin4 IgG antibodies. Briefly, 384 well plate was immobilized with human Nectin4-HIS tagged recombinant protein at final concentration of 2 ug/mL in 1×PBS in total volume of 25 uL per well. The plate was incubated overnight at 4° C. followed by blocking with 80 uL of superblock per well for 1 hour. Titration of purified anti-Nectin4 IgG starting at 200 nM 2-fold serial dilution, 25 uL was added to human Nectin4 immobilized wells and incubated for 1 hour with shaking. The Nectin4 binding was detected by adding 25 uL of anti-hFc HRP diluted at 1:5000 in 1×PBST. In between each step, the plate was washed 3 times with 1×PBST in a plate washer. The plate was then developed with 20 ul of TMB substrate for 5 mins and stopped by adding 20 ul of 2N sulfuric acid. The plate was read at OD450 nm Biotek plate reader and then plotted in Prism 8.1 software.

[2] = biological target: T2, full-length human Nectin4 with C-terminal flag and Myc tags on CHO cells (human, UniProt Q96NY8 32-510); experiment: flow cytometry, IgG on Nectin4/CHO cells, anti-hFc Alexa fluor 647
T2 construct: whole, on cells; also called Nectin4/CHO; CHO/Nectin4; not shown: C-terminal flag and Myc tags of pCMV6-Entry vector
T2 sequence (looked up): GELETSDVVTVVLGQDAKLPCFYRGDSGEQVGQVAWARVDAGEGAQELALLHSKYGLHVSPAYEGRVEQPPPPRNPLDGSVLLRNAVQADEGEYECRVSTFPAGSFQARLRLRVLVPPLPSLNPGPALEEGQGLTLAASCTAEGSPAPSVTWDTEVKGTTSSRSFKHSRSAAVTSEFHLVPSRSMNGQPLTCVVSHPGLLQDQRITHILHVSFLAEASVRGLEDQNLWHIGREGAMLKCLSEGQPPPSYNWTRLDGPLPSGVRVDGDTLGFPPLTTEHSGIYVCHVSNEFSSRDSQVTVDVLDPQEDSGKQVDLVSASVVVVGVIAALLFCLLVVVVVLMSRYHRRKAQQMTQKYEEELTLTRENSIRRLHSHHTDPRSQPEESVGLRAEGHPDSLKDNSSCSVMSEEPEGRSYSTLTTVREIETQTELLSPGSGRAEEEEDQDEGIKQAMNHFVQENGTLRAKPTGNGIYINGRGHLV
Description: 200 nM of purified anti-Nectin4 IgG antibodies were diluted in full medium and incubated with Nectin4/CHO and CHO cells in 96 wells plate on ice for 1 hour. Cells were spun down at 1200 rpm for 5 minutes at 4° C. to remove primary antibodies. Cells were then washed once with 200 uL of full medium per well. Samples were detected with anti-hFc Alexa fluor 647 by adding 100 uL of diluted secondary antibody and incubated at 4° C. for 30 minutes in the dark. Samples were spun down at 1200 rpm for 5 minutes at 4° C. and washed twice with 200 uL of 1×PBS per well. Reconstituted samples in 200 uL of 1×PBS and read on Attune NxT cytometer. Analysis was done by Attune NxT software plotting the overlay histogram of […] proteins binding onto both negative and target cell lines.

CD3 on Jurkat cells [3] = biological target: T3, CD3 on Jurkat cells (UniProt P07766 23-207, limits assumed); experiment: cell-based or functional assay
CD3 on Jurkat cells [4] = biological target: T3, CD3 on Jurkat cells; experiment: flow cytometry on Jurkat cells
Description: Jurkat cells were plated at 100,000 cells/well in a 96-well plate with 50 μL of full media. Anti-Nectin4/CD3 antibodies were 3-fold serial titrated from 20 nM. 50 μL was added to the cells and incubated for 1 hours at room temperature with shaking. Samples were washed one time with flow buffer. […] Samples were washed once with flow buffer. Samples were stained with 100 uL Zombie Fixable Viability Dyes at 1:800 dilution per well and incubated in dark at room temperature for 30 mins. Samples were spun down at 1300 rpm for 5 minutes and washed once with 200 uL flow buffer. Reconstituted samples in 200 uL of flow buffer and read on Attune NxT cytometer. EC50 values for CD3 binding were calculated using Prism 8.1 software.
Similar methods of above mentioned were used to measure the binding activities of anti-Nectin4/CD3/IL-2 complexes to CHO/Nectin4 and Jurkat cells, respectively.

[5] = biological target: T1, human Nectin4-HIS tagged recombinant …; experiment: ELISA, coated human Nectin4-HIS, complex titrated, anti-hFc HRP
Description: ELISA was performed to determine the EC₅₀ of anti-Nectin4/CD3/IL2 protein complexes. Briefly, 384 well plate was immobilized with human Nectin4-HIS tagged recombinant protein at final concentration of 2 ug/mL in 1×PBS in total volume of 25 uL per well. The plate was incubated overnight at 4° C. followed by blocking with 80 uL of superblock per well for 1 hour. […] The Nectin4 binding was detected by adding 25 uL of anti-hFc HRP diluted at 1:10000 in 1×PBST. In between each step, the plate was washed 3 times with […] in a plate washer. The plate was then developed with 20 ul of TMB substrate for 5 mins and stopped by adding 20 ul of 2N sulfuric acid. The plate was read at OD450 nm Biotek plate reader and then plotted in Prism 8.1 software. Similar SPR methods were applied to measure the binding of the protein complexes to Nectin4, CD3E and IL2 receptors.

[6] = biological target: T1, human Nectin4-HIS tagged recombinant …; experiment: ELISA, coated Nectin4 HIS tagged protein, bispecific titrated, anti-Human HRP
Description: An ELISA assay was developed to determine the EC₅₀ of anti-Nectin4/CD3 bispecific antibodies. Briefly, 384 well plate was immobilized with human CD3E or Nectin4 HIS tagged protein at final concentration of 2 ug/mL in 1×PBS in total volume of 25 uL per well. The plate was incubated overnight at 4° C. followed by blocking with 80 uL of superblock per well for 1 hour. Purified anti-Nectin4/CD3 was 3-fold serial titrated from 100 nM. 25 uL was added to human Nectin4/CD3 immobilized wells and incubated for 1 hour with shaking. The CD3E or Nectin4 binding was detected by adding 25 uL of anti-Human HRP diluted at 1:10000 in 1×PBST. In between each step, the plate was washed 3 times with […] in a plate washer. The plate was then developed with 20 ul of TMB substrate for 5 mins and stopped by adding 20 ul of 2N sulfuric acid. The plate was read at OD450 nm Biotek plate reader and then plotted in Prism 8.1 software to calculate EC50.

[7] = biological target: T2, full-length human Nectin4 with …; experiment: flow cytometry on CHO/Nectin4 cells
Description: Nectin4/CHO Nectin4 cells were plated at 100,000 cells/well in a 96-well plate in 50 μL of full media. Cells were rested 1 hour at 37° C. Anti-Nectin4/CD3 was 3-fold serial titrated from 50 nM. 50 μL was added to the cells and incubated for 1 hours with shaking. Samples were washed one time with flow buffer. […] Samples were washed once with flow buffer. Samples were stained with 100 uL Zombie Fixable Viability Dyes (1:800 dilution) per well and incubated in dark at room temperature for 30 mins. Samples were spun down at 1200 rpm for 5 minutes and washed once with 200 uL flow buffer. Reconstituted samples in 200 uL of flow buffer and read on Attune NxT cytometer. EC₅₀ values for Nectin4 Binding were determined using Prism software.

T3 sequence (P07766 23-207 limits assumed): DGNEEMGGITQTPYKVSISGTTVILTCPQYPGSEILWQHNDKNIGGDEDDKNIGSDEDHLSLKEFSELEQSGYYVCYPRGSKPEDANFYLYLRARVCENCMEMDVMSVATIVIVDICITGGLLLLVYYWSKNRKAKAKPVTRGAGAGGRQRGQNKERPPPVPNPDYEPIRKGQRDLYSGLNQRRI

B1: 2020EP47-F02 IgG (EP544/EP545) (antibody, V domains shown)
VH: QVQLQQWGAGLLKPSETLSLTCAVYGGSFSGYYWSWIRQPPGKGLEWIGEINHSGSTNYNPSLKSRVTISVDTSKNQFSLKLSSVTAADTAVYYCARGWYLGFDYWGQGTLVTVSS
VL: QSVLTQPRSVSGSPGQSVTISCTGTSRDVGGYDYVSWYQQYPGKAPKLMISGVSERPSGVPDRFTGSRSANTASLTISGLQTDDEANYYCCSYAGSFTWVFGDGTKLTVLG
notes: Human IgG1 with lambda light chain; entries without signal peptide used
Q: How did the EC50 [1] turn out when B1 was run?
A: Its EC50 is 0.119 nM.

Q: What about the EC50 [2] of the same binder?
A: Its EC50 is 0.125 nM.

B2: EP369/371/289 anti-Nectin4/CD3/IL2 protein complex (bispecific antibody)
chain: not shown
heavy: not shown
light: QAVVTQPPSVSVAPGKTATITCGGNNIGSKGVHWYQQKPGQAPVLVIYYDTDRPSGIPERLSGSNSGNTATLTISRVEAGDEADYYCQVWDSSSDHPVFGGGTKLTVLGQPKANPTVTLFPPSSEELQANKATLVCLISDFYPGAVTVAWKADGSPVKAGVETTKPSKQSNNKYAASSYLSLTPEQWKSHRSYSCQVTHEGSTVEKTVAPTECS
notes: Anti-CD3 sp34 scFv-Fc knob (EP369), B09 heavy chain hole with wild-type IL2 at the C-terminus (EP371), light chain EP289; also called EP369/EP371/EP289
Q: What does the source list for B2?
A: Jurkat Cell Activation Activity, NFAT reporter EC50 (CD3 on Jurkat cells [3]): 0.009 nM; EC50 (CD3 on Jurkat cells [4]): 1.65 nM; EC50 [5]: 0.016 nM

B3: EP499/EP378/EP289 anti-Nectin4/CD3 bispecific antibody (bispecific antibody)
heavy 1: EVQLVQSGAEVKKPGASVKVSCKASGYTFTGYYMHWVRQAPGQGLEWMGRINPNSGGTNYAQKFQGRVTMTRDTSISTAYMELSGLRSDDTAVYFCARVTYNIGWYIDYWGQGTLVTVSSASTKGPSVFPLAPSSKSTSGGTAALGCLVKDYFPEPVTVSWNSGALTSGVHTFPAVLQSSGLYSLSSVVTVPSSSLGTQTYICNVNHKPSNTKVDKKVEPKSCDGGGGSGGGGSEVQLVESGGGLVQPGGSLRLSCAASGFTFNTYAMNWVRQAPGKGLEWVARIRSKYNNYATYYAASVKGRFTISRDDSKNSLFLQMNSLKTEDTAVYYCVRHGNFGNSYVSWFAYWGQGTLVTVSSGGGGSGGGGSGGGGSGGGGSQTVVTQEPSLTVSPGGTVTLTCRSSTGAVTTSNYANWVQEKPDHLFTGLIGGTNKRAPGVPARFSGSLLGGKAALTLSGVQPEDEAIYFCALWYSNLWVFGSGTKVTVLEPKSCDKTHTCPPCPAPEAAGGPSVFLFPPKPKDTLMISRTPEVTCVVVDVSHEDPEVKFNWYVDGVEVHNAKTKPREEQYNSTYRVVSVLTVLHQDWLNGKEYKCKVSNKALGAPIEKTISKAKGQPREPQVCTLPPSRDELTKNQVSLSCAVKGFYPSDIAVEWESNGQPENNYKTTPPVLDSDGSFKLVSKLTVDKSRWQQGNVFSCSVMHEALHNHYTQKSLSLSPGK
heavy 2: not shown
light: B2 light
notes: Bivalent for Nectin4; EP499 carries a humanized SP34 scFv between CH1 and hinge, hole; also called EP499/378/289
Q: For B3, which EC50 [6] is on record?
A: The EC50 was 0.025 nM.

Q: What about the EC50 [7] of the same binder?
A: The EC50 was 0.235 nM.

B4: EP500/EP378/EP289 anti-Nectin4/CD3 bispecific antibody (bispecific antibody)
heavy 1: B3 heavy 1 with T381A, R402A, I466E, F468Y, S481G, V485L
heavy 2: not shown
light: B2 light
notes: Bivalent for Nectin4; EP500 carries a humanized SP34 scFv between CH1 and hinge, hole; template of EP695, EP696 and EP697; also called EP500/378/289
Q: For B4, which EC50 [6] is on record?
A: The EC50 was 0.022 nM.

Q: What about the EC50 [7] of the same binder?
A: The EC50 was 0.234 nM.

B5: EP369/379/289 anti-Nectin4/CD3/IL2 protein complex (bispecific antibody)
chain: not shown
heavy: EVQLVQSGAEVKKPGASVKVSCKASGYTFTGYYMHWVRQAPGQGLEWMGRINPNSGGTNYAQKFQGRVTMTRDTSISTAYMELSGLRSDDTAVYFCARVTYNIGWYIDYWGQGTLVTVSSASTKGPSVFPLAPSSKSTSGGTAALGCLVKDYFPEPVTVSWNSGALTSGVHTFPAVLQSSGLYSLSSVVTVPSSSLGTQTYICNVNHKPSNTKVDKKVEPKSCDKTHTCPPCPAPEAAGGPSVFLFPPKPKDTLMISRTPEVTCVVVDVSHEDPEVKFNWYVDGVEVHNAKTKPREEQYNSTYRVVSVLTVLHQDWLNGKEYKCKVSNKALGAPIEKTISKAKGQPREPQVCTLPPSRDELTKNQVSLSCAVKGFYPSDIAVEWESNGQPENNYKTTPPVLDSDGSFKLVSKLTVDKSRWQQGNVFSCSVMHEALHNHYTQKSLSLSPGKGGGGSGGGGSGGGGSGGGGSAPASSSTKKTQLQLEHLLLDLQMILNGINNYKNPLLTDMLTRKFYMPKKATELKHLQCLEEELKPLEEVLNLAQSKNFHLRPRDLISNINVIVLELKGSETTFMCEYADETATIVEFLNRWITFSQSIISTLT
light: B2 light
notes: Anti-CD3 sp34 scFv-Fc knob (EP369), B09 heavy chain hole with K35L R38D F42R IL2 at the C-terminus (EP379), light chain EP289; also called EP369/EP379/EP289
Q: B5 was tested. Which “Jurkat Cell Activation Activity, NFAT reporter EC50” value (CD3 on Jurkat cells [3]) did it give?
A: The value was 0.044 nM.

Q: And the EC50 (CD3 on Jurkat cells [4])?
A: Its EC50 is 1.04 nM.

Q: What about the EC50 [5] of the same binder?
A: The EC50 was 0.042 nM.

B6: EP697/EP378/EP289 anti-Nectin4/CD3 bispecific antibody (bispecific antibody)
heavy 1: B3 heavy 1 with Y289A, N291A, Y342A, T381A, R402A, I466E, F468Y, S481G, V485L
heavy 2: not shown
light: B2 light
notes: EP697: two residue mutations within HCDR2 and a single point mutation within HCDR3 of the anti-CD3 scFv of EP500; also called EP697/378/289
Q: Does B6 bind (CD3 on Jurkat cells [4])?
A: Result: no binding
